Experimental data taken from patent publication US20100028347A1 (Eli Lilly, published 2010).

Tests used:
[1] = target: T1, soluble recombinant human VEGFR-1 alkaline phosphatase (human, UniProt P17948 27-758); experiment: blocking ELISA: antibody preincubated with VEGFR-1 AP, binding to PlGF coated plate
T1 construct: Made in house in stably transfected cells; also called rhuVEGFR-I AP; VEGFR-I AP; not shown: alkaline phosphatase fusion partner
Experimental: (§1) Specifically, hybridoma supernatants or purified antibodies were diluted in PBS with 5% FBS and 0.05% Tween 20 (ELISA buffer) and incubated in rhuVEGFR-I AP or AP coated 96-well microtiter plates for 30 minutes. Plates were washed with the ELISA buffer and incubated with goat anti-mouse IgG-horseradish peroxidase (HRP) conjugate (BioSource International, Camarillo, Calif.) for 30 minutes. TMB (3,3′,5,5′-tetra-methylbenzidine) substrate (Kierkegaard and Perry Lab, Inc., Gaithersburg, Md.) was used for color development following the manufacturer's instruction. The absorbance at 450 nanometers (nm) was read for quantification of binding activity of antibodies. For identification of the hybridomas producing anti-VEGFR-I antibodies, hybridoma supernatants were preincubated with VEGFR-I AP for 1 hour. The mixtures were incubated with the ELISA buffer in VEGF or P1GF coated 96-well microtiter plates for 1 hour. PNPP (p-nitrophenyl phosphate) substrate for AP was used for color development following the manufacturer's instruction. The absorbance at 405 nm was read for quantification of VEGFR-I binding to VEGF or P1GF. Optical density (OD) values were read on a microtiter plate reader (Molecular Devices Corp., Sunnyvale, Calif.). ED50 and IC50 of the antibodies were analyzed using GraphPad Prism 3 software (GraphPad Software, Inc., San Diego, Calif.).

[2] = target: T2, recombinant extracellular domain of VEGFR-1 (UniProt P17948 27-758, limits assumed); experiment: SPR, BIAcore 2000, VEGFR-1 extracellular domain immobilised at low density
T2 construct: extracellular domain
Experimental: Affinities of anti-VEGFR-1 antibody clones 6F9, 13 G12, 15F1 1, 18F1 were determined by plasmon resonance technology using BIAcore 2000 (Pharmacia, Piscataway, N.J.) according to the procedures provided by the manufacturer. Kinetic analyses of the antibodies were performed by immobilization of recombinant extracellular domain of VEGFR-I onto a sensor surface at a low density. The (kₒₙ) and dissociation (kₒ_{^ff}) rates were determined using the BIAevaluation 2.1 software provided by the manufacturer.

[3] = target: T3, native VEGFR-1 expressed on the cell surface (human, UniProt P17948 27-1338); experiment: cell-based or functional assay
[4] = target: T1, soluble recombinant human VEGFR-1 …; experiment: blocking ELISA: antibody preincubated with VEGFR-1 AP, binding to VEGF coated plate
Experimental: as §1

[5] = target: T1, soluble recombinant human VEGFR-1 …; experiment: ELISA, purified antibody on rhuVEGFR-1 AP coated plate (given as ED50)
Experimental: as §1

[6] = target: T1, soluble recombinant human VEGFR-1 …; experiment: ELISA: purified antibody on plate-coated rhuVEGFR-1 AP, O.D. 450
Experimental: as §1

[7] = target: T3, native VEGFR-1 expressed on the cell …; experiment: cell-based competition: cold VEGF at 200-fold molar excess over 125I-VEGF (2 ng/ml) on PAE-VEGFR-1 cells, gamma counting
Experimental: The binding of ¹²⁵1-VEGF to VEGFR-I on cell surface was performed using PAE-VEGFR-I expressing cells. […] Confluent cells were incubated in serum- and growth supplement-free Dulbecco's Modified Eagle Medium (DMEM)ZF-12 medium (Invitrogen, Carlsbad, Calif.) for 24 hours. Cells were rinsed once with ice-cold DMEMZF-12 medium containing 0.025 M HEPES and 1 mgZml bovine serum albumin (BSA). A serial dilution of anti-VEGFR-I antibody 18F1 or cold VEGF at the concentration of a 200-fold molar excess of labeled VEGF was added to each well in the plate and incubated at 4° C. for 1 hour. After wash, ¹²⁵I-VEGF was added at the concentration of 2 ngZml and was incubated at 4° C. for 2 hours on a platform shaker. The cells were washed three times with PBS containing 1 mgZml BSA and 0.25 mM CaCl₂, and were incubated for 5 minutes in the presence of 1% Triton X-100, 1 mgZml BSA, and 0.16% NaN₃ to remove bound VEGF. The soluble content of each well was counted in a gamma counter. The assays were performed in triplicate in at least three independent experiments and the data were analyzed using Prism GraphPad software 3.03.

mouse VEGFR-2 Fc = target: T4, mouse VEGFR-2 Fc (mouse, UniProt P35918 20-762, limits assumed); experiment: ELISA: antibody dilutions on plate coated with 1 µg/ml mouse VEGFR-2 Fc, HRP secondary, O.D. 450
T4 construct: not shown: Fc part; not described
Experimental: To determine the specificity of an anti-VEGFR-1 monoclonal antibody to human VEGFR-I, purified antibodies 18F1 were tested in an ELISA-based assay. One μg/ml of recombinant human VEGFR-I Fc, mouse VEGFR-I Fc, mouse VEGFR-2 Fc, or human VEGFR-2 alkaline phosphatase was coated with PBS in a 96-well microtiter plates at 4° C. over night. After wash, the receptor coated plates were blocked with PBS containing 5% Dry Milk and 0.05% Tween 20. Serial dilutions of primary antibody 18F1 to human VEGFR-I, MF1 to mouse VEGFR-I, IC1 1 to human VEGFR-2, or DClOl to mouse VEGFR-2 were incubated in the receptor-coated plates for 30 minutes. After wash secondary anti-primary HRP conjugate antibodies was incubated in the plates for 30 minutes. Plates were washed and incubated with the substrate TMB (3,3′,5,5′-tetra-methylbenzidine) for color development. The absorbance at 450 nm was read as OD values for quantification of binding activity of antibodies. Data were analyzed using a GraphPad Prism Software.

T1 sequence (P17948 27-758): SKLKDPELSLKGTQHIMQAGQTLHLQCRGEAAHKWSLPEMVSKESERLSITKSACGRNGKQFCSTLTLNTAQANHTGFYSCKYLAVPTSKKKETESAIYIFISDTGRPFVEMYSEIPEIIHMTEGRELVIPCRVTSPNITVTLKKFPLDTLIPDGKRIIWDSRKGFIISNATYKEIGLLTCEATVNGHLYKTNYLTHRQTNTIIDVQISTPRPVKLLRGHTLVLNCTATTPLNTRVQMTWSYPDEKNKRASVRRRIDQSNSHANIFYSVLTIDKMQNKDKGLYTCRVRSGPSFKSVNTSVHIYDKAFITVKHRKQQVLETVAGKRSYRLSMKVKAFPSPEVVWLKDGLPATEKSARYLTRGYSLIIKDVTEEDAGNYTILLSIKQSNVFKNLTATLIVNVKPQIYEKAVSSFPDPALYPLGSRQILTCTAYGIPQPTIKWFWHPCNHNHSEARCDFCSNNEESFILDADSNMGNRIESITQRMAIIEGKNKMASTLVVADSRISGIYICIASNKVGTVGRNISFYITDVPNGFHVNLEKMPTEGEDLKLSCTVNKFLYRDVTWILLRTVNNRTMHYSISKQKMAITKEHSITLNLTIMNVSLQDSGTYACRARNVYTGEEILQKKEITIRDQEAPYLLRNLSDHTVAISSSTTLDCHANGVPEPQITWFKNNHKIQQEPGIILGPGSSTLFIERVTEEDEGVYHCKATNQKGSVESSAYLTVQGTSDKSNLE
T2 sequence (P17948 27-758 limits assumed): as the sequence (P17948 27-758) above
T3 sequence (P17948 27-1338): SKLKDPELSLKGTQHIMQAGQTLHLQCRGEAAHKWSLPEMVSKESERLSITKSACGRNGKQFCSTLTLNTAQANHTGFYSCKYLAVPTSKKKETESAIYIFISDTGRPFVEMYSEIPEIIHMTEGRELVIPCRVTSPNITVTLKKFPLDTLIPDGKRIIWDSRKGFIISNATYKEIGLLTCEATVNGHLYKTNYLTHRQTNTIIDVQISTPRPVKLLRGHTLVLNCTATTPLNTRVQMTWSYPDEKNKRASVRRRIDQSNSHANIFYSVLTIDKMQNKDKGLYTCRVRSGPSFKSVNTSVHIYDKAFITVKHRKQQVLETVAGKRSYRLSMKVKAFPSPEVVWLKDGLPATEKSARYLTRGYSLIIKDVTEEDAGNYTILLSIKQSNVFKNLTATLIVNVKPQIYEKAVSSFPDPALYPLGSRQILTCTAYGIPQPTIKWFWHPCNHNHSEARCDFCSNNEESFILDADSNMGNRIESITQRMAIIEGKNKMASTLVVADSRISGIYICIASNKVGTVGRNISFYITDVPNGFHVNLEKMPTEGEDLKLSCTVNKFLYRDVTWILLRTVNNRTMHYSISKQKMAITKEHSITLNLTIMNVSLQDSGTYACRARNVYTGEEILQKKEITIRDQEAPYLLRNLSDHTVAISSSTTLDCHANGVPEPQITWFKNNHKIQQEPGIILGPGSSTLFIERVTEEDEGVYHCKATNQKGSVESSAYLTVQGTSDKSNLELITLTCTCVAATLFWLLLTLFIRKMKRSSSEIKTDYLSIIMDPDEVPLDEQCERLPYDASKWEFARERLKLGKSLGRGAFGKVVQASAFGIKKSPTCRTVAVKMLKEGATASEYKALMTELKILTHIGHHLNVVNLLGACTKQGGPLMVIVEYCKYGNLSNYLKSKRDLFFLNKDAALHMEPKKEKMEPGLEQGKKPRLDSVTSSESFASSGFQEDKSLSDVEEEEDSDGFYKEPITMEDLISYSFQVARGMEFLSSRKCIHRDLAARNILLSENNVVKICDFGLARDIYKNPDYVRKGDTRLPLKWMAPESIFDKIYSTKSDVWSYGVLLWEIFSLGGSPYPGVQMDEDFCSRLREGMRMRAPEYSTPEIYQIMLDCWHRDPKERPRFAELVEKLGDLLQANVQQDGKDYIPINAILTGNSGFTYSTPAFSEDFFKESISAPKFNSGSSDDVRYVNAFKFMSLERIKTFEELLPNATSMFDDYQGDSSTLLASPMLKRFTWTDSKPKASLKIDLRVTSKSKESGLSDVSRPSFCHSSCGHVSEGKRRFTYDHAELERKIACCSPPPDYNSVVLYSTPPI
T4 sequence (P35918 20-762 limits assumed): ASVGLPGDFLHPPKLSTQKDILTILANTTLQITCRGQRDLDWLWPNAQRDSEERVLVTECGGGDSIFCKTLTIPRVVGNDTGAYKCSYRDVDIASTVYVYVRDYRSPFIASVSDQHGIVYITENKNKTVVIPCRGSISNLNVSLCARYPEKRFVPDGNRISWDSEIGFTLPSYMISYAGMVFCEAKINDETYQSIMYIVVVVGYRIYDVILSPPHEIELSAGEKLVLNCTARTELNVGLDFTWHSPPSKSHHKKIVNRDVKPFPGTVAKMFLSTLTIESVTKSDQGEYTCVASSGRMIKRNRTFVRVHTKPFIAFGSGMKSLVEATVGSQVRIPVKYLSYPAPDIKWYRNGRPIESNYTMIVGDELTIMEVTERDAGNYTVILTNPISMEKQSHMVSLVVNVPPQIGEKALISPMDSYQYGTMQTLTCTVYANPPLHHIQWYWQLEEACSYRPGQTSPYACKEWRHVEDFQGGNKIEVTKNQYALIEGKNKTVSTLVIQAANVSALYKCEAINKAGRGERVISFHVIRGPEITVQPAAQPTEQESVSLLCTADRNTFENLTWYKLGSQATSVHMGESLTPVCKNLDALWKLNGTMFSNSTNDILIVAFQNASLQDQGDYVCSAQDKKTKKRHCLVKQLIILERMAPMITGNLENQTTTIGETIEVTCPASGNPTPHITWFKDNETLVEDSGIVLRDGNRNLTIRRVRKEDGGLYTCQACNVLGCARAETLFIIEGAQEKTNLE

Row | Binder | IC50 [1] [nM] | Kd [2] [nM] | kon [2] [M⁻¹ s⁻¹] | Inhibition of PlGF-induced DU4475 cell growth in vitro (IC50) [3] [nM] | IC50 [4] [nM] | EC50 [5] [nM] | EC50 [6] [nM] | binding result [7] | EC50 (read off the curve) (mouse VEGFR-2 Fc) [ng/mL]
1 | anti-VEGFR-1 antibody clone 13G12 (antibody, human IgG1, V domains shown, Fully human antibody (gamma heavy chain, kappa light chain) from hybridomas of KM transgenic mice, purified; The light chain entry runs a few residues into the kappa constant region) VH: QVQLVESGGGVVQPGRSLRLSCAASGFTFSSYGMHWVRQAPGKGLEWVAVIWYDGSNKYYADSVKGRFTISRDNSKNTLYLQMNSLRAEDTAVYYCARDHYGSGAHYYYYYGMDVWGQGTTVTVSS VL: not shown | 0.82 | 0.121 | 950000 | 66 | 0.7 | 0.3 |  |  | 
2 | anti-VEGFR-1 antibody clone 6F9 (antibody, human IgG1, V domains shown, Fully human antibody (gamma heavy chain, kappa light chain) from hybridomas of KM transgenic mice, purified) VH: QVQLVESGGGVVQPGRSLRLSCAASGFTFSSYGMHWVRQAPGKGLEWVAVIWYDGSNKYYADSVKGRFTISRDNSKNTVYLQMNSLRAEDTAVYHCTRDHFGSGAHYYYYYGMDVWGQGTTVTVSS VL: not shown | 0.86 | 0.069 | 1.01e+06 | 43 | 0.82 | 0.1 | 0.114 |  | 
3 | anti-VEGFR-1 antibody clone 15F11 (antibody, V domains shown, Fully human antibody (gamma heavy chain, kappa light chain) from hybridomas of KM transgenic mice, purified; The light chain entry runs a few residues into the kappa constant region; also called FI1) VH: QVQLVESGGGVVQPGRSLRLSCAASGFTFSSYGMHWVRQAPGKGLEWVAVIWFDGSNKYYADSVKGRFTISRDNSKNTLYLQMNSLRAEDTAVYYCARDHYGSGAHSYYYYGLDVWGQGTSVTVSS VL: not shown | 0.49 | 0.07 | 1.02e+06 | 44 | 0.73 | 0.3 |  |  | 
4 | human VEGF165 (ligand, UniProt P15692-4 27-191, looked up) APMAEGGGQNHHEVVKFMDVYQRSYCHPIETLVDIFQEYPDEIEYIFKPSCVPLMRCGGCCNDEGLECVPTEESNITMQIMRIKPHQGQHIGEMSFLQHNKCECRPKKDRARQENPCGPCSERRKHLFVQDPQTCKCSCKNTDSRCKARQLELNERTCRCDKPRR |  |  |  |  |  |  |  | binds | 
5 | DC101 (antibody, V domains shown) VH: EVQLVETGGGLVQPGNSLKLSCATSGFIFSTTWMNWIRQTPGKRLEWLAQIEDKSNNYFISYSESVKGRFTISRDDSKSSVYLQMNNLKEEDTAIYYCSWKYRSNYYFDYWGQGVMVTVSS VL: DIVLTQSPALAVSLEQRATISCKTSQNVDYYGISYLHWYQQKPGQQPKLLIYEGSNLASGIPARFSGSGSGTDFTLTIDPVEADDIVTYYCQQSKDYPYTFGAGTKLELK |  |  |  |  |  |  |  |  | ~8
